From patent publication US20080104734A1

Molecular target: SSPG1d peptide (…) (Sclerotinia sclerotiorum)
Test: phage ELISA during panning of the phage display scFv library

B1: scFv-SSPG1d-peptide (scFv)
scFv: MDIVLTQSPAIMSASPGEKVTMTCSASSSVSYMHWYQQKSSTSPKLWIYDTSKLASGVPGRFSGSGSGNSYSLTISSMEAEDVATYYCFQGSGYPLTFGAGTKLEIKRGAGGSGGGGSGGGGSGGGGSQVQLQQSGAELVRPGSSVKISCKASGYAFSNYWMNWVKQRPGQGLEWIGQIYPGYGDAKYNGKFKGKATLTADISSSTAYMQLSSLTSEDSAVYFCARSSYEANWGQGTLVTVSA
- absorbance at 450 nm above background (absorbance (450 nm)): 0.871
